Measurements from publication PMC7083938 (2020).
Blank lines part the entries; values can stand above or below the binder they belong to.

Molecular target: T1, biotinylated mouse Robo3 FN1–3 (Avi-tagged) (mouse, UniProt Q9Z2I4 558-869, biotin on the Avi-tag (BirA))
T1 chain: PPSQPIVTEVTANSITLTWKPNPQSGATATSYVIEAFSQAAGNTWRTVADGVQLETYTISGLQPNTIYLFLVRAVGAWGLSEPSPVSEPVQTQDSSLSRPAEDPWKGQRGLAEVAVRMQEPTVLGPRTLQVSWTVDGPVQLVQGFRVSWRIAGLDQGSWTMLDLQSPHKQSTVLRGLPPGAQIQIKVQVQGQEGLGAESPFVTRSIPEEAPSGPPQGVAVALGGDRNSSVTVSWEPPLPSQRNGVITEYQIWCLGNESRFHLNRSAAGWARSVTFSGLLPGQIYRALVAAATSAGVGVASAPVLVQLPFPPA
Assay: SPR

Kd: ~400 µM
B1: mouse NELL2 EGF1–6 L498A/F500A (domain or fragment)
chain: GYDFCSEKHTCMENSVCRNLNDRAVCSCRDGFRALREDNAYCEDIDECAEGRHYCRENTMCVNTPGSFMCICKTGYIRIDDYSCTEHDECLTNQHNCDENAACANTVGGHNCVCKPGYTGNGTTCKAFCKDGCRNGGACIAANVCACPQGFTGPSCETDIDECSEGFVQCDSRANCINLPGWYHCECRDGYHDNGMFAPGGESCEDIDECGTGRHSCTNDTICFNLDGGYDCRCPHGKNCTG

Kd: 0.71 µM
B2: mouse NELL2 EGF1–6, wild type (domain or fragment)
chain: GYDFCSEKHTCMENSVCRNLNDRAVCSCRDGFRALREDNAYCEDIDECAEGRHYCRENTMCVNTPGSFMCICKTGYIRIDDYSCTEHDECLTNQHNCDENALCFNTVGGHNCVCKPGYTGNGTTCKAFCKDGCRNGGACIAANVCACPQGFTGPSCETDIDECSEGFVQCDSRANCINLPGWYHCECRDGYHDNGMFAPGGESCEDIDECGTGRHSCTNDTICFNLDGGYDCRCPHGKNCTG

Kd: 87 µM
B3: mouse NELL2 EGF1–6 R448A/Y450A (domain or fragment)
chain: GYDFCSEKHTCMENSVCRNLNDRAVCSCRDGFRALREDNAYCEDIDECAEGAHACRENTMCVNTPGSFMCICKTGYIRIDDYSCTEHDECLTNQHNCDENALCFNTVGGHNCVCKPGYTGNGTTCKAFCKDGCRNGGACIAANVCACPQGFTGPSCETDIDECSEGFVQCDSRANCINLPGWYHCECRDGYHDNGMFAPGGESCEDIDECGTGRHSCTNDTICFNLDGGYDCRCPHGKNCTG
